Assay results: PMC5929992 (Science signaling, 2016)
Numbering of substitutions follows the chain as printed. Names may count otherwise. Non-standard residues stand in square brackets, D forms with d. No end group written: not given here. pY = N[C@@H](Cc1ccc(OP(=O)(O)O)cc1)C(=O)O

Key:
Experiment in all cases: SPR
[1] = target: Biotinylated CD28CD 25-mer peptide (residues 194 to 218) phosphorylated at Tyr207 (mouse)
[2] = target: Murine full-length Lck (amino acid residues 6 to 509) (mouse, UniProt P06240 6-509, phosphotyrosine at 505)
Chain of Murine full-length Lck (amino acid residues 6 to 509) (P06240 6-509): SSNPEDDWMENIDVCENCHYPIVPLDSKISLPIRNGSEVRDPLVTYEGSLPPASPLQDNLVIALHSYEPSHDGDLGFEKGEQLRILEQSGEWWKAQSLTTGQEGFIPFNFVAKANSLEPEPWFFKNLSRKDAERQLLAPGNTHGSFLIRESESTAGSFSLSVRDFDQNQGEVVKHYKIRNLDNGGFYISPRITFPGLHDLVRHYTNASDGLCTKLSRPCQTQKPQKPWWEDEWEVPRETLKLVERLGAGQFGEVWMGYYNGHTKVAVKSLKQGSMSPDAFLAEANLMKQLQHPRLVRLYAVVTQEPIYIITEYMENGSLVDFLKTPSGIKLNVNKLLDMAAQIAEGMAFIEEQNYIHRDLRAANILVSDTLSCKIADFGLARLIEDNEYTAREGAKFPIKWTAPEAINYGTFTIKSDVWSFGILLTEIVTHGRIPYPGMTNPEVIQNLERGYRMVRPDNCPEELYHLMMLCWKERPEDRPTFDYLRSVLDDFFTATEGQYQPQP

[3] = target: Lck SH2 domain (residues 122 to 226) (mouse, UniProt P06240 122-226)
Chain of Lck SH2 domain (residues 122 to 226) (P06240 122-226): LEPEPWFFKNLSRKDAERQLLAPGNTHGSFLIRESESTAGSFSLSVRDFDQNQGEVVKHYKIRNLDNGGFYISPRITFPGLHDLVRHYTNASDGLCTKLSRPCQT

Lck SH2 domain (residues 122 to 226) (from UniProt P06240 122-226) (domain or fragment)
Kd [1]: 10 µM

B1: CD28WT cytoplasmic domain (CD28CD), disulfide-linked dimer (domain or fragment, mouse)
chain: CNSRRNRLLQSDYMNMTPRRPGLTRKPYQPYAPARDFAAYRP
modifications: disulfide between the added N-terminal cysteines of the two chains (oxidized with 1 mM GSSG)
Kd [2]: 199 nM

B2: CD28 Mut5 cytoplasmic domain, disulfide-linked dimer (domain or fragment, mouse)
chain: B1 chain with P30A, P33A
modifications: disulfide between the added N-terminal cysteines of the two chains (oxidized with 1 mM GSSG)
Kd [2]: 187 nM

PRRPGLTRKPYQA[pY]AAARDFAAYRP (peptide, UniProt P31041 194-218, looked up, also: biotinylated, position not given here) [Biotinylated CD28CD 25-mer peptide phosphorylated at Tyr207, double mutant P206A/P209A]
Kd [3]: 63.7 µM
